{
  "source": "paper PMC10393992",
  "about": "(Nature Communications, 2023)",
  "molecular_target": "the molecule itself",
  "assay": "SEC; Superdex 75 10/300 GL; 20 mM NaCl, 25 mM HEPES, 0.2 mM 2-mercaptoethanol; size from a calibration curve of marker proteins",
  "data": [
    {"protein": "His-CIP4-HR1 (domain or fragment, Mus musculus, UniProt Q8CJ53-3 339-425, looked up, CIP4, Mus musculus, HR1, a.a; 339-425; numbers count on: UniProt Q8CJ53-3; also called homology region 1 of CIP4; source: E. coli BL21-CodonPlus (DE3)-RIL, purified (Ni-NTA agarose, dialysis)) PPEQQRKRLQQQLEERNRELQKEEDQREALKKMKDVYEKTPQMGDPASLEPRIAETLGNIERLKLEVQKYEAWLAEAESRVLSNRGD", "values": [
      {"measurement": "stoichiometry N", "value": 2}
    ]}
  ]
}
